Our source for the loss of binding against native LL-37, decrease of binding against native LL-37 and Kd values is paper PMC8534323.

By Kd is commonly meant the concentration at which binding is half-saturated.

The target in assay [1] is Phosphoglycerate mutase 1 (Gpm1), recombinant (C. albicans) (UniProt P82612). Nature of the assay: SPR. For orientation: In SPR one partner is held on a chip, and binding of the other changes the refractive index at the surface.
In assay [2] the target is enolase (Eno1) (C. albicans (endogenous in strain ATCC 10231)) (UniProt P30575). Nature of the assay: SPR.
The target of assay [3] is Als3 (agglutinin-like sequence protein 3), isolated from the surface of C. albicans (C. albicans (endogenous in strain ATCC 10231)) (UniProt Q59L12). As to the kind of experiment: SPR.
For assay [4], the target named is triosephosphate isomerase 1 (Tpi1) (C. albicans (endogenous in strain ATCC 10231)) (UniProt Q9P940). As to the kind of experiment: SPR.
The target in assay [5] is enolase (Eno1) (C. albicans (endogenous in strain ATCC 10231)) (UniProt P30575). Nature of the assay: ELISA-like microplate ligand-binding assay; fungal protein immobilised on the microplate, soluble fluorescent-labeled histones; saturation one-site binding model. In general terms: ELISA stands for enzyme-linked immunosorbent assay.
For assay [6], the target named is Als3 (agglutinin-like sequence protein 3), isolated from the surface of C. albicans (C. albicans (endogenous in strain ATCC 10231)) (UniProt Q59L12). The description is as above.
Assay [7] deals with Phosphoglycerate mutase 1 (Gpm1), recombinant (C. albicans) (UniProt P82612). Described as above.

Sequence of Phosphoglycerate mutase 1 (Gpm1), recombinant (C. albicans) (P82612 whole entry): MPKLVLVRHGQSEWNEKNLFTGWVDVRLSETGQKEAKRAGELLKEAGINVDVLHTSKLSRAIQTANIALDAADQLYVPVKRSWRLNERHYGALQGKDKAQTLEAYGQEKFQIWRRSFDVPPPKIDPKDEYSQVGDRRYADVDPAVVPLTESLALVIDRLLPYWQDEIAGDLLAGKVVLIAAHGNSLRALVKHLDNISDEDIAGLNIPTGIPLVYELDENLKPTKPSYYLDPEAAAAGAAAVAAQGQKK
Sequence of triosephosphate isomerase 1 (Tpi1) (C. albicans (endogenous in strain ATCC 10231)) (Q9P940 whole entry): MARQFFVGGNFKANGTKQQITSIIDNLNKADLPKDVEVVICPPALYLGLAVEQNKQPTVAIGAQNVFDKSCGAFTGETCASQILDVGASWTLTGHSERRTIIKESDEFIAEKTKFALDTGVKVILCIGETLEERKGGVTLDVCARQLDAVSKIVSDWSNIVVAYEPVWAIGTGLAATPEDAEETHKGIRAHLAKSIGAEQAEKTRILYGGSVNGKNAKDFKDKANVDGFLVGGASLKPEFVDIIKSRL

As to LL-37(7)Cit (peptide), the loss of binding against native LL-37 in assay [1] was 75%. The decrease of binding against native LL-37 in assay [2] and in assay [3] was 50% each time.

As to cathelicidin-derived peptide LL-37, the Kd in assay [4] turned out to be 68.3 nM; in assay [1] it was 598 nM; in assay [2], 14.6 nM; in assay [3], 228 nM.

Take “histone H2 (from UniProt P0C0S8 1-130) (natural protein)”: the Kd in assay [5] was determined as 911 nM; in assay [6], 1790 nM.

Take “histone H3 (from UniProt P68431 1-136) (natural protein)”: the dissociation constant Kd in assay [7] worked out at 258 nM; in assay [5] it was 1230 nM; in assay [6] it was 23.4 nM.

Consider “lactotransferrin (LF) (from UniProt P02788 20-710) (natural protein)”, for which, in assay [3], the Kd was 85.9 nM.

In the case of myeloperoxidase (MPO) (enzyme), the Kd in assay [4] was 45 nM; in assay [1], 353 nM; in assay [2], 78.7 nM; in assay [3], 11.6 nM.
